Source: patent US20230144459A1 (published 2023)
Where no end group is shown, it is not given here.

Biological target: T1, BSA conjugated CD28 stalk region dimeric peptide (also: dimer, conjugated to BSA via C-terminal Lys)
T1 peptide: GKHLCPSPLFPGPSKPK
Test: ELISA

B1: antibody M9 (antibody, V domains shown)
VH: DVKLVESGGGLVKLGGSLKLSCVASGFTFSSYYMSWVRQTPEKRLEWVATISDGGDNTYYAGTVTGRFTISRDFAKNTLYLQMNSLTSEDTAVYYCARIHWPYYFDSWGQGTTLTVSS
VL: QFVLSQSPAILSASPGEMLTMTCRASSSVSYMNWYQQKPGSSPKPWIYATSDLASGVPARFSGSGSGTSYSLTISRVEAEDAATYYCQQWSSHPPTFGGGTKLEIR
  IC50: 9 ng/mL
